Experimental data reported in patent US20010019714A1 (priority 1998, published 2001).

Molecular target: T1, HLA-A2 on T2 cells (Homo sapiens, UniProt P04439, D140Y/D185E/D98H/E176V/E277Q/G131W/G231S/I119V/I121R/I166T/I218V/L300P/L318F/N151K/N90K/P208A/P217A/Q86G/Q94H/R138H/R169H/T345S)
T1 construct: T2 cell line expressing the HLA-A2 molecules; endogenous in cells; host or cells: T2 cell line (TAP-deficient), from Dr Peter Creswell, Yale University
Experiment: peptide-induced MHC class 1 assembly assay (HLA-A2 binding and stabilization, FACS)
Format: cell-based
Settings: for binding to HLA-A2 on T2 cells (shift of fluorescent peak): antibody BB7.2, FACS, FIG. 1; for order of potency by comparison of fluorescence indices: fluorescence index = mean fluorescence of peptide treated T2 cells / untreated T2 cells
Method: Location of the potential CTL containing motifs of the HIV-1(LAI) Rev protein has been predicted by the reported peptide-binding motif algorithms. […] The ability of the peptides containing these motifs to bind and stablize membrane-bound HLA-A2 molecule was assessed using the T2 cell line. The cell line has been well documented to have defective TAP transporter function resulting in the majority of the intracellularly generated peptides being unable to be transported into the endoplasmic reticulum to associate with the newly synthesized HLA class 1 molecules, i.e. HLA-A2 (see references 4, 5). […] Upon interaction with suitable peptides introduced exogenously, the stability of the HLA-A2 molecules can be restored.
T2 cell line expressing the HLA-A2 molecules was obtained from Dr Peter Creswell at the Howard Hughes Research Institute of Yale University. The cells were propagated in Iscove's complete medium (Iscove's medium supplemented with 10% heat-inactivated bovine serum, 120.0 units per ml of penicilin G sodium, 120 μg per ml of streptomycin sulphate, and 0.35 mg per ml of L-glutamine). The ability of individual 8 to 13 mer peptides, prepared as described in Example 1 and identified in Table 1, to bind and modulate the stability of the A2 molecules on T2 cells was determined using a peptide-induced MHC class 1 assembly assay, which was modified from a protocol described by Yuping Deng et al. (ref. 6).
In essence, 1×10^6 T2 cells were incubated with a specified concentration of the test peptide in 250.0 μl of Iscove's serum-free medium (Iscove's medium supplemented with 120.0 units per ml of penicillin G sodium, 120.0 ug per ml of streptomycin sulphate and 0.35 mg per ml of L-glutamine) in a sterile Eppendorf tube at 37° C. overnight. The cells were then incubated on ice for 30 min before 1.0 ml of Iscove's complete medium supplemented with 5.0 ug per ml of brefeldin A, 12.5 ug per ml of anisomycin and 5.0 ug per ml of cyclohexamide was added. The samples were then incubated for 3.0 hr in a 37° C. CO2 incubator.
In the presence of the drugs, further protein synthesis and intracellular delivery of HLA-A2 molecules to the cell surface are inhibited, and de-stabilization of the conformation of the membrane-bound class 1 molecules at the physiological temperature occurs.
The cells were then washed twice with ice-cold PBA (a buffer containing 0.9% sodium chloride, 0.5% bovine serum albumin and 0.02% sodium azide). 100.0 ul of PBA containing 5.0 ug of a conformation-sensitive HLA-A2-specific mouse monoclonal antibody, BB7.2 (ref. 7), was then added to each test sample. The reaction was allowed to take place on ice for 45 min. The cells were then washed three times with ice-cold PBA.
The binding of BB7.2 was then detected by adding […] containing 1.0 ug of goat anti-mouse IgG F(ab′) fluorescein (FITC) conjugate to each cell sample. After 30 min incubation on ice, the cells were washed twice with PBA, and twice again with PBS, pH 7.2. Cells were fixed immediately after washing was completed by adding 100.0 ul of 1.0% paraformaldehyde to the cell pellet. The cells were gently resuspended and were FACS analysed usually within three days after the experiments were completed.
The fluorescence index, which is an indicator for increased density of membrane-bound A2 molecules, was calculated by dividing the mean fluorescence of an experimental sample (peptide treated T2 cells) by the mean fluorescence of the control sample (T2 cells not treated with peptide).

Sequence	binding to HLA-A2 on T2 cells (shift of fluorescent peak)	order of potency by comparison of fluorescence indices
PLQLPPLERLIL [CLP-182]	capable of binding to HLA-A2 on T2 cells	CLP-177>CLP-72>CLP-178>CLP-182
ILVESPAVL [CLP-72]	capable of binding to HLA-A2 on T2 cells	CLP-177>CLP-72>CLP-178>CLP-182
YLGRSAEPV [CLP-177]	capable of binding to HLA-A2 on T2 cells	CLP-177>CLP-72>CLP-178>CLP-182
YLGRSAEPVPL [CLP-178]	capable of binding to HLA-A2 on T2 cells	CLP-177>CLP-72>CLP-178>CLP-182
